Test results reported in publication PMC12246119 (Nature Communications, 2025).

What was measured:
Crm1 = target: T1, Crm1 (human, UniProt O14980 1-1071); test: cryo-EM structure; purified RanBP2^RBD4/SUMO1^Q94P-RanGAP1/Ubc9 incubated with excess Crm1 and Ran^Q69L(GTP), gel filtration in 20 mM HEPES pH 7.4, 110 mM potassium acetate, 2 mM magnesium acetate, 1 mM TCEP; lightly crosslinked with 250 µM BS3; 0.1% CHAPSO; 9.7 mg/mL; settings: both partners purified
T1 construct: Crm1 (exportin), human, full length, wild type; also called exportin Crm1; source: E. coli BL21(DE3) SoluBL21 with Codon Plus (RIL) plasmid, purified (Ni-NTA, Ulp1 cleavage, Superdex 200, MonoQ); not shown: His6, N-terminal, cleaved; Smt3, N-terminal, cleaved
T1 sequence (O14980 whole entry): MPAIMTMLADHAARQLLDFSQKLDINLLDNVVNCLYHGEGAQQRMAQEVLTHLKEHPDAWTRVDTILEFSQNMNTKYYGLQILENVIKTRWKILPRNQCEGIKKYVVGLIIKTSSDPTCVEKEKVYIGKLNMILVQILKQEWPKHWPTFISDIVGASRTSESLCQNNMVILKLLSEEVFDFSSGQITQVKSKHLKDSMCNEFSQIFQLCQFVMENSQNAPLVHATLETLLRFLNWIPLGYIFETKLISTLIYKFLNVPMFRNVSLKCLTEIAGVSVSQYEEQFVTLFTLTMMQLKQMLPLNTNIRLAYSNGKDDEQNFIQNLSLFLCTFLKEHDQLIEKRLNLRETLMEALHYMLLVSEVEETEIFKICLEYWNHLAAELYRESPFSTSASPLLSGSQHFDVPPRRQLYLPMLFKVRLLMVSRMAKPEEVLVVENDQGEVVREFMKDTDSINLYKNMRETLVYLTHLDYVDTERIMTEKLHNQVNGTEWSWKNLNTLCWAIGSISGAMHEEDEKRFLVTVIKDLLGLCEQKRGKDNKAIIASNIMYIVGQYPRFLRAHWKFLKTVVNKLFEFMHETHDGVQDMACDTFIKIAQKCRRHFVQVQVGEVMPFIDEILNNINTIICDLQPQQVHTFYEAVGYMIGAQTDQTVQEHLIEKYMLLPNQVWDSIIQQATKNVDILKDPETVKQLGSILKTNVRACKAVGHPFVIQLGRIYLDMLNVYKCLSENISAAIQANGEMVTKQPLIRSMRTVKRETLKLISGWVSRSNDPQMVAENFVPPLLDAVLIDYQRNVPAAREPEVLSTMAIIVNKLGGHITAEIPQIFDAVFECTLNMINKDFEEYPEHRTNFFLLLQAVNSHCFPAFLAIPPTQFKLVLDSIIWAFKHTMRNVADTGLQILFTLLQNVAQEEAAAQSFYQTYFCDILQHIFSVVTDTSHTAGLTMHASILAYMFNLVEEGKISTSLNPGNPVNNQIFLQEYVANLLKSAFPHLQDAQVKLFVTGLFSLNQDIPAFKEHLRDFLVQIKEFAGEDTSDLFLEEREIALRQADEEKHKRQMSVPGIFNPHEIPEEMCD

Ran^Q69L(GTP) = Ran^Q69L(GTP) (human, UniProt P62826 1-216, Q69L); test: as above; settings: both partners purified

B1: RanBP2^2446-3060 (RanBP2^RBD4) (domain or fragment, human, UniProt P49792 2446-3060, looked up)
chain: DSLITPHVSRSSTPRESPCGKIAVAVLEETTRERTDVIQGDDVADATSEVEVSSTSETTPKAVVSPPKFVFGSESVKSIFSSEKSKPFAFGNSSATGSLFGFSFNAPLKSNNSETSSVAQSGSESKVEPKKCELSKNSDIEQSSDSKVKNLFASFPTEESSINYTFKTPEKAKEKKKPEDSPSDDDVLIVYELTPTAEQKALATKLKLPPTFFCYKNRPDYVSEEEEDDEDFETAVKKLNGKLYLDGSEKCRPLEENTADNEKECIIVWEKKPTVEEKAKADTLKLPPTFFCGVCSDTDEDNGNGEDFQSELQKVQEAQKSQTEEITSTTDSVYTGGTEVMVPSFCKSEEPDSITKSISSPSVSSETMDKPVDLSTRKEIDTDSTSQGESKIVSFGFGSSTGLSFADLASSNSGDFAFGSKDKNFQWANTGAAVFGTQSVGTQSAGKVGEDEDGSDEEVVHNEDIHFEPIVSLPEVEVKSGEEDEEILFKERAKLYRWDRDVSQWKERGVGDIKILWHTMKNYYRILMRRDQVFKVCANHVITKTMELKPLNVSNNALVWTASDYADGEAKVEQLAVRFKTKEVADCFKKTFEECQQNLMKLQKGHVSLAAELSK
notes: RanBP2 (Nup358), human, residues 2446-3060: FG1, IR1-M-IR2, FG2 and RBD4; also called RanBP2 FG1-IR1-M-IR2-FG2-RBD4 fragment; hRanBP2^RBD4; source: E. coli BL21(DE3) Codon Plus (RIL), purified (Ni-NTA, Superdex 200)
binding result (Crm1): binds | binding result (Ran^Q69L(GTP)): binds
